# T1: NEIL2 (rNEIL2) (UniProt Q969S2 1-332)
# T1 sequence: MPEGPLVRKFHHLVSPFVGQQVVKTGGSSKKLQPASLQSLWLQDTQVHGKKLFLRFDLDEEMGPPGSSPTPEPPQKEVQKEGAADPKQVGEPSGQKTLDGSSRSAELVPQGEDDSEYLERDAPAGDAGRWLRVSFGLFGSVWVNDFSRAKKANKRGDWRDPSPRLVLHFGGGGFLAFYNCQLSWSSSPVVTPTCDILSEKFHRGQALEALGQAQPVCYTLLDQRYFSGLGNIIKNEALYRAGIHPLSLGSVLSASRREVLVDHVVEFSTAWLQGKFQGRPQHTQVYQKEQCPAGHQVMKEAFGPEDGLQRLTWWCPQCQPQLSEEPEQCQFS
# Columns and labels:
# NEIL2 (rNEIL2) [1] = molecular target: T1, NEIL2 (rNEIL2); experiment: EMSA; 1 nM RNA, compact band at 75 nM NEIL2; Kd not measurable (aggregates); conditions: protein: recombinant; tags: C-terminal 6xHis; chain copies: 12; label: 32P end label; folded; partly aggregates
# NEIL2 (rNEIL2) [2] = molecular target: T1, NEIL2 (rNEIL2); experiment: EMSA; conditions: protein: recombinant; tags: C-terminal 6xHis; chain copies: 12; label: 32P end label; natively folded, minor misfolded band
# NEIL2 (rNEIL2) [3] = molecular target: T1, NEIL2 (rNEIL2); experiment: EMSA; 1 nM RNA, no yeast tRNA; Hill 2.428; conditions: protein: recombinant; tags: C-terminal 6xHis; label: 32P end label
binder,measurement,setting,value
"CoV-2 3'-UTR RNA (full length, 200 nt) (structured_RNA) RNA: CAAUCUUUAAUCAGUGUGUAACAUUAGGGAGGACUUGAAAGAGCCACCACAUUUUCACCGAGGCCACGCGGAGUACGAUCGAGUGUACAGUGAACAAUGCUAGGGAGAGCUGCCUAUAUGGAAGAGCCCUAAUGUGUAAAAUUAAUUUUAGUAGUGCUAUCCCCAUGUGAUUUUAAUAGCUUCUUAGGAGAAUGACAAAA",binding result,NEIL2 (rNEIL2) [1],binds
"CoV-2 5'-UTR RNA (full length, 297 nt) (structured_RNA) RNA: AUUAAAGGUUUAUACCUUCCCAGGUAACAAACCAACCAACUUUCGAUCUCUUGUAGAUCUGUUCUCUAAACGAACUUUAAAAUCUGUGUGGCUGUCACUCGGCUGCAUGCUUAGUGCACUCACGCAGUAUAAUUAAUAACUAAUUACUGUCGUUGACAGGACACGAGUAACUCGUCUAUCUUCUGCAGGCUGCUUACGGUUUCGUCCGUGUUGCAGCCGAUCAUCAGCACAUCUAGGUUUUGUCCGGGUGUGACCGAAAGGUAAGAUGGAGAGCCUUGUCCCUGGUUUCAACGAGAA",Kd,NEIL2 (rNEIL2) [2],44.2 nM
"UCCCCAUGUGAUUUUAAUAGCUUCUUAGGAGAAUGACA (mixed, DNA bases may be present) [CoV-2 3'-UTR ZnF-site (38-mer)]",Kd,NEIL2 (rNEIL2) [3],77.2 nM

# Source: publication PMC10710473, “The DNA glycosylase NEIL2 is protective during SARS-CoV-2 infection”
